pKd: −log10 of the molar value.
How the values were obtained:
[1] = target: glycocalicin, the carbohydrate-rich extracellular portion of the platelet membrane glycoprotein GPIbα (human) (UniProt P07359); assay: binding of whole bacteria to immobilised protein in microtiter wells; as a1, bacteria diluted into DPBS containing 44 mM α-2,3-sialyl (1-thioethyl)galactose, pH 7.5, compared with DPBS alone
[2] = target: glycocalicin (Homo sapiens) (UniProt P07359); conditions: cited from earlier work
Sequence of glycocalicin (Homo sapiens) (P07359 17-506): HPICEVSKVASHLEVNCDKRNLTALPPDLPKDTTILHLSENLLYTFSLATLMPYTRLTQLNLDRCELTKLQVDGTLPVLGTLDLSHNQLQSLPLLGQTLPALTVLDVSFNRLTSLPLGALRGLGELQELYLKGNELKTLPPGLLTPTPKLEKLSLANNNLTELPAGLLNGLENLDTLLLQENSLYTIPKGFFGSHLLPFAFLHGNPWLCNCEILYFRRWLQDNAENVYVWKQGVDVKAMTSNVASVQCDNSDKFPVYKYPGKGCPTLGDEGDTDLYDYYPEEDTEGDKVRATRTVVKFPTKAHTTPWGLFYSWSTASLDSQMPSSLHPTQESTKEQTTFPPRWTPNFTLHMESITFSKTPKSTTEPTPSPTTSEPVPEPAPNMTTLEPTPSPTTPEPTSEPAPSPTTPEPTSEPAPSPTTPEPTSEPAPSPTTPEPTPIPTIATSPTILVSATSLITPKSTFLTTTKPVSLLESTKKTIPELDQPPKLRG

Sequence of glycocalicin, the carbohydrate-rich extracellular portion of the platelet membrane glycoprotein GPIbα (human) (P07359 17-531): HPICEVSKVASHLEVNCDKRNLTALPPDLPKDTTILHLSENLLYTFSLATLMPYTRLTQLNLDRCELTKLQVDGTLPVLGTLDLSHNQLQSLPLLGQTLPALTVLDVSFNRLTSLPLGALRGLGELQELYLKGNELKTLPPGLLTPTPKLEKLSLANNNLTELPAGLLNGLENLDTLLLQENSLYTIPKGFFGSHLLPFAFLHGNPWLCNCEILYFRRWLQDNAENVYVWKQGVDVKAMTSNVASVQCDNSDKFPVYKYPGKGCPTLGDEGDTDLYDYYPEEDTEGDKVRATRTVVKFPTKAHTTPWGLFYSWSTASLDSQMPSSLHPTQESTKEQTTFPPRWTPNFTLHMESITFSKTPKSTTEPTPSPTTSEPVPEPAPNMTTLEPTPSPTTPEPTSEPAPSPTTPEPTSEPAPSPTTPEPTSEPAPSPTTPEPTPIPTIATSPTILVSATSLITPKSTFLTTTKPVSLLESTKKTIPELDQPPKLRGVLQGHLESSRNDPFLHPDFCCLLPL
Sequence of GspB (Q939N5 86-3041): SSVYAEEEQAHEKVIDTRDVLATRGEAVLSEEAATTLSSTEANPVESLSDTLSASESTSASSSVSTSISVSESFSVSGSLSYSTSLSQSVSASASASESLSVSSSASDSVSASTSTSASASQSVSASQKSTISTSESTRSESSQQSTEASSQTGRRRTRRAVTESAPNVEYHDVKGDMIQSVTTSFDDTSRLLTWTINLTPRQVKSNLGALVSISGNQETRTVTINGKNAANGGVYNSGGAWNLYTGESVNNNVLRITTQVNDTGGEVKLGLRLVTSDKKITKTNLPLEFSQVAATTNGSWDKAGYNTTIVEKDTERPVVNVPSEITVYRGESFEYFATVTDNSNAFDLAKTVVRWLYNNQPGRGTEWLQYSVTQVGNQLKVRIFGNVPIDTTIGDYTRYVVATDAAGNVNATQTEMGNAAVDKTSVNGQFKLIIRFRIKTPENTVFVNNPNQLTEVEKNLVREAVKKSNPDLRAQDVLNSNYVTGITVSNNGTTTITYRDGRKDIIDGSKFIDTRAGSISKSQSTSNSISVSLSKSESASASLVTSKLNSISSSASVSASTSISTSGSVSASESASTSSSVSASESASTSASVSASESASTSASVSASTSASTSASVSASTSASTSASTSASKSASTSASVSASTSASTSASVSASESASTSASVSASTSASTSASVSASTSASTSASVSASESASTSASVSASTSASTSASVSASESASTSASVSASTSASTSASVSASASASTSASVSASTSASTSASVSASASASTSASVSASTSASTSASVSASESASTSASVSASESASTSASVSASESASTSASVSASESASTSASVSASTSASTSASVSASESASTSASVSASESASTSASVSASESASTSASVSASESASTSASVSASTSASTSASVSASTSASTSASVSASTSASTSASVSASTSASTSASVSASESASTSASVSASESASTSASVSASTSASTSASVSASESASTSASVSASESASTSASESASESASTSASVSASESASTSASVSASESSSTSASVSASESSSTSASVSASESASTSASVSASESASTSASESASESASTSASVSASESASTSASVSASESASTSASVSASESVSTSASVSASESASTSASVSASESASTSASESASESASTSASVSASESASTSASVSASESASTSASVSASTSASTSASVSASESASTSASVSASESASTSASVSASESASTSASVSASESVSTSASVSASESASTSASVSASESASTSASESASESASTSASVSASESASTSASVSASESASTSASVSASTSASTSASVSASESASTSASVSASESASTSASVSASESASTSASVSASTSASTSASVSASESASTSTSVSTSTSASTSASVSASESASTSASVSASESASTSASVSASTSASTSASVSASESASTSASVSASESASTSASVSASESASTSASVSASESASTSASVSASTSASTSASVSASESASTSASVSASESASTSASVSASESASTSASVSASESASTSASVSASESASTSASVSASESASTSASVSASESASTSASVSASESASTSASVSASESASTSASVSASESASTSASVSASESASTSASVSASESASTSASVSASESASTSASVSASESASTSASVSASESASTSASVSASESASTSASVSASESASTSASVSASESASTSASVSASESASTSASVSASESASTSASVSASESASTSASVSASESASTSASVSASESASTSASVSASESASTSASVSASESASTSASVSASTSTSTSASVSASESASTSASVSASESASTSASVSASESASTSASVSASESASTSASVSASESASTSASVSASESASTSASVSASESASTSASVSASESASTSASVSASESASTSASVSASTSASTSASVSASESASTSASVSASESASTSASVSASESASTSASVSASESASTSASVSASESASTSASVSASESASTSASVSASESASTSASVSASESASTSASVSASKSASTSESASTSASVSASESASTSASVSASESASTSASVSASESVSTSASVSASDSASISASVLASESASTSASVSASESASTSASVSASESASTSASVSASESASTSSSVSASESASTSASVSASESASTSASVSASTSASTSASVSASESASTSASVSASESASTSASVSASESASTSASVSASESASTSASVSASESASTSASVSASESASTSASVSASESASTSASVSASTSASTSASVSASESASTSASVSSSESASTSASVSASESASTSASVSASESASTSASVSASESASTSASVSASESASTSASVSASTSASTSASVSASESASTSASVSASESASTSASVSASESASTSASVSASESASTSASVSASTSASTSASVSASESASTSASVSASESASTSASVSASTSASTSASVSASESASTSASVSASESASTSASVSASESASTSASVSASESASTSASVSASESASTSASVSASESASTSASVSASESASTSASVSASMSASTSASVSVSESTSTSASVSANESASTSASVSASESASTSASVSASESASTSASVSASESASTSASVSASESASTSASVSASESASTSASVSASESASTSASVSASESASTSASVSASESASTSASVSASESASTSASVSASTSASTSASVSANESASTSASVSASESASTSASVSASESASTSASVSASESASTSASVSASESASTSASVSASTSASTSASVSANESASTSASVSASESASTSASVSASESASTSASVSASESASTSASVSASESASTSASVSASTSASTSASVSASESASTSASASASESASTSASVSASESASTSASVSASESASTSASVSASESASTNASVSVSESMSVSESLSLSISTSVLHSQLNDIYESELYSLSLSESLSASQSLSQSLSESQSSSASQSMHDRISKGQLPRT

Substance	percent reduction of binding by 44 mM α-2,3-sialyl (1-thioethyl)galactose [1] [%]	pKd [2]
GspB of Streptococcus gordonii strain M99, wild type, on the bacterial cell surface, Q939N5 86-3041 (natural protein; carries sialyl-T antigen carbohydrates (sites not stated))	90	–
GspB (from UniProt Q939N5)	–	7.62

From publication PMC3131266
